Values of other authors in patent US20070032474A1, “Use of a compound of formula 1 for making a pharmaceutical composition” (priority 2003, published 2007).

Biological target: PKBbeta (Homo sapiens, UniProt P31751)
Conditions: background, reference (5); read-out: AC50 (activation of PKBbeta)

PKBbeta, sequence (P31751 146-460 limits assumed, species assumed): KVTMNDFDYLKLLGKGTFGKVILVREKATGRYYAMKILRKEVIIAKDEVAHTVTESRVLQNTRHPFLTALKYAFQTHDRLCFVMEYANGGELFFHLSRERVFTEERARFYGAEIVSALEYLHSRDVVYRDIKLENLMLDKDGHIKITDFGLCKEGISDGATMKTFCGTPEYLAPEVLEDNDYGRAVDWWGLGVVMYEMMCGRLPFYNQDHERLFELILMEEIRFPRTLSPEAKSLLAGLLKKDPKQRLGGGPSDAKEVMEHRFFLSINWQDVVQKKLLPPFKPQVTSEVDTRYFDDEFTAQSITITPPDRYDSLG

polypeptide NH2-REPRILSEEEQEMFRDFDYIADW-COOH comprising a hydrophobic motif; activates AGC kinases (H-REPRILSEEEQEMFRDFDYIADW-OH) [PIFtide]
AC50: 5 µM
